Test [1] has as its target endogenous IP3R1 of HeLa cells (UniProt Q14643). Put plainly: cell-based or functional assay.
In test [2] the target is IP3R1 (inositol 1,4,5-trisphosphate receptor type 1), untagged, expressed in cells (mouse) (UniProt P11881). Put plainly: cell-based or functional assay.

endogenous IP3R1 of HeLa cells, sequence (Q14643 whole entry): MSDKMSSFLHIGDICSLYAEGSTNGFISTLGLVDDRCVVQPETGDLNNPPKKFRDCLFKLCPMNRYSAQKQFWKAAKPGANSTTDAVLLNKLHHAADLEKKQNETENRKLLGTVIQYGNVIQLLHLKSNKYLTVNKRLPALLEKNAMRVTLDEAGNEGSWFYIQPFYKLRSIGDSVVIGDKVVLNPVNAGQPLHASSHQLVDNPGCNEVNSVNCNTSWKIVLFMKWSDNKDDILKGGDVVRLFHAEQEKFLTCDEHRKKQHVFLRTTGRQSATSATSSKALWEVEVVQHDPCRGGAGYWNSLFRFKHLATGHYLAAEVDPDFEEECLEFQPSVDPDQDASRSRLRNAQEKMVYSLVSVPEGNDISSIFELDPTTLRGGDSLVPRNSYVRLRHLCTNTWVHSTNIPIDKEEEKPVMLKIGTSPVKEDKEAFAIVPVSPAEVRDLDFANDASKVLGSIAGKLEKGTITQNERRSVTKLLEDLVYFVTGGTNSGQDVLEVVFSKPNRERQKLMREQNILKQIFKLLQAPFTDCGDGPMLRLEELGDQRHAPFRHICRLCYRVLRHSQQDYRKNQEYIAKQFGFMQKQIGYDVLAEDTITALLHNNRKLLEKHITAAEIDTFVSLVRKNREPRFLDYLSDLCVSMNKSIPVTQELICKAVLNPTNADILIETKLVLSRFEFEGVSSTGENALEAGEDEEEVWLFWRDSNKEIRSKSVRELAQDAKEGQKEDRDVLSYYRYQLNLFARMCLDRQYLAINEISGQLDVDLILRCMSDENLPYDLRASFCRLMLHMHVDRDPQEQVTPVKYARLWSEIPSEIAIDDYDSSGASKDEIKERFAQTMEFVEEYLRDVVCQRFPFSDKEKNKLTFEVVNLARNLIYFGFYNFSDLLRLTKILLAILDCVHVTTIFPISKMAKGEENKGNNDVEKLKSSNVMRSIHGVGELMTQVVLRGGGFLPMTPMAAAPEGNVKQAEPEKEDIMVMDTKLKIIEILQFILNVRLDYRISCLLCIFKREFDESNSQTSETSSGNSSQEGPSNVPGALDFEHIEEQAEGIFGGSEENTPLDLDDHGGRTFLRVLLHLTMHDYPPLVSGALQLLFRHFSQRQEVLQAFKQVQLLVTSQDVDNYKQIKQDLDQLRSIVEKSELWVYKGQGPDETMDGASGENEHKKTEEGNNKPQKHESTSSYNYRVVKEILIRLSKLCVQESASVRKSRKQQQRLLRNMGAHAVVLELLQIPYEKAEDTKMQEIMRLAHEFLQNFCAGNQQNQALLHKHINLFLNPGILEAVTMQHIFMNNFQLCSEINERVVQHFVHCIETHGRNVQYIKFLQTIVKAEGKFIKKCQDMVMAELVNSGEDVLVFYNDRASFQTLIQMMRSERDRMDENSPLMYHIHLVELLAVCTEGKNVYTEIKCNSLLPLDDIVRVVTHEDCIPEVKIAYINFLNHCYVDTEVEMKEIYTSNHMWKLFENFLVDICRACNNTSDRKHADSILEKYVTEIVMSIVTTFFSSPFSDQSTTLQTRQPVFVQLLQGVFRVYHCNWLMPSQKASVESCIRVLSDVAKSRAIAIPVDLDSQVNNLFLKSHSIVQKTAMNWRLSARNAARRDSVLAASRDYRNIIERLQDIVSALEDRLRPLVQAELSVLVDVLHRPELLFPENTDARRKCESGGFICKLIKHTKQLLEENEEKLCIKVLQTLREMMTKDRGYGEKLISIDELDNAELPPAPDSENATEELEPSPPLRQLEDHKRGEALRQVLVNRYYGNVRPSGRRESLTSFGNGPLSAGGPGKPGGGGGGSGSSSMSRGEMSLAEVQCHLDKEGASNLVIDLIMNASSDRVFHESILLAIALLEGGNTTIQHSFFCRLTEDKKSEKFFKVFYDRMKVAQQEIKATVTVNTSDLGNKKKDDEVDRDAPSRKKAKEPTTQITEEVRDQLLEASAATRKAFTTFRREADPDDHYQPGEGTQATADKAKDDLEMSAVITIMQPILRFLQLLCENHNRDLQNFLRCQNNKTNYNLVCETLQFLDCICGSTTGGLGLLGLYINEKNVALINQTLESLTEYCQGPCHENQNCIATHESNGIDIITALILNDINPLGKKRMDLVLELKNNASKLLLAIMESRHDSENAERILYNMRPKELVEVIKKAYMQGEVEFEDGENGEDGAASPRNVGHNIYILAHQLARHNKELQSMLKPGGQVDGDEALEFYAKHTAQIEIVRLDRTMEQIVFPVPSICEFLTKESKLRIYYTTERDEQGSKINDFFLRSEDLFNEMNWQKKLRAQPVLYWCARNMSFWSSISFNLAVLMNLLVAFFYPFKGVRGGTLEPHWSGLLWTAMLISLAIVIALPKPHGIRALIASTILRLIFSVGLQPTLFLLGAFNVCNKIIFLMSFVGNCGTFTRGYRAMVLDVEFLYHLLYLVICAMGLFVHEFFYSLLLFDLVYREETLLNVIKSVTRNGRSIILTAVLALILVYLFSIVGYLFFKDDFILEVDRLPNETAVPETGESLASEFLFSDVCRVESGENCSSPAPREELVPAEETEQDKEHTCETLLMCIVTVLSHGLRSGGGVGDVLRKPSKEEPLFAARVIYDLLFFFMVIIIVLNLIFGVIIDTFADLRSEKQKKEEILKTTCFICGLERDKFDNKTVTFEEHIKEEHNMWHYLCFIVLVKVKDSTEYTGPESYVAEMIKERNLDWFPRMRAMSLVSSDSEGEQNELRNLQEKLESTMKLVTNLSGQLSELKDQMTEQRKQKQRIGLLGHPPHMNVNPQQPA

Consider “RFP-ERp44 (red fluorescent protein-tagged ERp44) (from UniProt Q9D1Q6 30-406)”, for which, in test [1], the peak amplitude of ATP-induced Ca2+ transient in HeLa cells, percent of non-transfected cells was found to be 69.3%. The substance also displayed a peak amplitude of BCR-induced Ca2+ release in DT40-KMN60 cells, percent of non-transfected cells in test [2] of 60.6%. Take “RFP-ERp44-C58S (from UniProt Q9D1Q6 30-406)”: the Ca2+ response in siERp44-3U-pretreated HeLa cells compared with RFP-RDEL-transfected cells in test [1] amounted to 77.1%.
